Source: the supplement of paper PMC9732359
± gives the uncertainty stated by the source.

Assay: protein stability index of a GFP-peptide fusion (yeast GPS) (PSI 1-4); higher = more stable; sorted into four equal gates, so the index is relative within each strain
How it was run: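 Peptides tiling yeast proteins in 17-residue segments were fused downstream of GFP, with Cherry expressed from the same plasmid. As a pooled library in yeast, mid-log cultures grown in leucine-free medium were sorted into four equal gates by GFP/Cherry fluorescence ratio. Gate plasmids were PCR-amplified and Illumina-sequenced, and barcodes linked reads to strains. Each peptide received a protein stability index equal to the sum of each gate's read frequency times its gate number.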

## EPLSDTEEPDLAIADVE [DSN1]
doa10∆
  protein stability index: 2.96 ± 0.081
pdr5∆
  protein stability index: 2.81 ± 0.067
san1∆
  protein stability index: 3.09 ± 0.043
ubr1∆
  protein stability index: 3.24 ± 0.099

## EEQEEEPDREKIKLLTQ [RPC19]
doa10∆
  protein stability index: 2.93 ± 0.25
pdr5∆
  protein stability index: 3.24 ± 0.11
san1∆
  protein stability index: 2.52 ± 0.15
ubr1∆
  protein stability index: 2.65 ± 0.23

## ELISYRNESLKNNSSIR [SRB8]
doa10∆
  protein stability index: 3.15 ± 0.068
pdr5∆
  protein stability index: 3.05 ± 0.11
san1∆
  protein stability index: 3.05 ± 0.08
ubr1∆
  protein stability index: 3.05 ± 0.049

## ASLKKMEETEQKKIQIN [SMC3]
doa10∆
  protein stability index: 2.33 ± 0.22
pdr5∆
  protein stability index: 1.82 ± 0.076
san1∆
  protein stability index: 3.1 ± 0.13
ubr1∆
  protein stability index: 2.23 ± 0.11

## AGDIQLQYGWKVERHIM [RPO21]
doa10∆
  protein stability index: 1.18 ± 0.067
pdr5∆
  protein stability index: 1.24 ± 0.12
san1∆
  protein stability index: 1.36 ± 0.19
ubr1∆
  protein stability index: 1.24 ± 0.098

## RNTMMIQCQIDKLYIHF [RGR1]
doa10∆
  protein stability index: 1.98 ± 0.051
pdr5∆
  protein stability index: 2.15 ± 0.061
san1∆
  protein stability index: 2.08 ± 0.069
ubr1∆
  protein stability index: 2.19 ± 0.041

## ITDKGTVDGRLYQLFKT [YJL039C/NUP192]
doa10∆
  protein stability index: 3.19 ± 0.11
pdr5∆
  protein stability index: 3.46 ± 0.097
san1∆
  protein stability index: 3.3 ± 0.069
ubr1∆
  protein stability index: 3.46 ± 0.094

## RPSFQNNRISNANEISA [SWP82]
doa10∆
  protein stability index: 2.22 ± 0.043
pdr5∆
  protein stability index: 2.29 ± 0.047
san1∆
  protein stability index: 1.99 ± 0.082
ubr1∆
  protein stability index: 2.47 ± 0.054

## TAGKTSVKSARTSTRGR [SNF2]
doa10∆
  protein stability index: 3.44 ± 0.058
pdr5∆
  protein stability index: 3.37 ± 0.052
san1∆
  protein stability index: 3.12 ± 0.042
ubr1∆
  protein stability index: 3.206 ± 0.031

## KLITTYISLLKLQGLYE [YDL116W/NUP84]
doa10∆
  protein stability index: 2.23 ± 0.059
pdr5∆
  protein stability index: 1.82 ± 0.061
san1∆
  protein stability index: 1.66 ± 0.072
ubr1∆
  protein stability index: 1.72 ± 0.052

## LPTPTPTEMEPDLDTEC [SWI1]
doa10∆
  protein stability index: 2.92 ± 0.05
pdr5∆
  protein stability index: 3.09 ± 0.05
san1∆
  protein stability index: 2.77 ± 0.048
ubr1∆
  protein stability index: 2.94 ± 0.032

## ATSTNPAKSASARGSYL [RPL17A]
doa10∆
  protein stability index: 2.25 ± 0.033
pdr5∆
  protein stability index: 2.59 ± 0.038
san1∆
  protein stability index: 2.53 ± 0.038
ubr1∆
  protein stability index: 2.66 ± 0.029

## TPAMIPYPGSPMHSIMP [DSN1]
doa10∆
  protein stability index: 2.8 ± 0.037
pdr5∆
  protein stability index: 2.67 ± 0.034
san1∆
  protein stability index: 2.88 ± 0.036
ubr1∆
  protein stability index: 2.846 ± 0.025

## QAPFSTSTKDKNSSTSN [MED1]
doa10∆
  protein stability index: 3.11 ± 0.062
pdr5∆
  protein stability index: 3.24 ± 0.068
san1∆
  protein stability index: 3.12 ± 0.054
ubr1∆
  protein stability index: 3.09 ± 0.048

## MDKPLNFRILKSFTNDK [SRB5]
doa10∆
  protein stability index: 3.15 ± 0.06
pdr5∆
  protein stability index: 3.11 ± 0.059
san1∆
  protein stability index: 3.14 ± 0.042
ubr1∆
  protein stability index: 3.16 ± 0.036

## LPTRYTLDVEAFKSVVS [RPL27A]
doa10∆
  protein stability index: 1.33 ± 0.031
pdr5∆
  protein stability index: 1.55 ± 0.039
san1∆
  protein stability index: 1.62 ± 0.066
ubr1∆
  protein stability index: 1.34 ± 0.031

## TGNFIIPSGNVWNYTFM [PRP8]
doa10∆
  protein stability index: 3.05 ± 0.095
pdr5∆
  protein stability index: 2.95 ± 0.12
san1∆
  protein stability index: 2.88 ± 0.077
ubr1∆
  protein stability index: 3.18 ± 0.12

## SVNFFVSLLKKNWQNVG [RPL1A]
doa10∆
  protein stability index: 1.19 ± 0.07
pdr5∆
  protein stability index: 1.32 ± 0.063
san1∆
  protein stability index: 1.25 ± 0.14
ubr1∆
  protein stability index: 1.46 ± 0.063

## IASAGKDGEIMLWNLAA [ASC1]
doa10∆
  protein stability index: 2.92 ± 0.077
pdr5∆
  protein stability index: 1.66 ± 0.053
san1∆
  protein stability index: 3.03 ± 0.054
ubr1∆
  protein stability index: 3.09 ± 0.076

## QKMAELEAARSEKQNDE [PRP8]
doa10∆
  protein stability index: 1.75 ± 0.11
pdr5∆
  protein stability index: 1.76 ± 0.085
san1∆
  protein stability index: 2.23 ± 0.26
ubr1∆
  protein stability index: 1.8 ± 0.09

## SPTSPSYSPTSPSYSPT [RPO21]
doa10∆
  protein stability index: 2.74 ± 0.037
pdr5∆
  protein stability index: 2.91 ± 0.039
san1∆
  protein stability index: 2.72 ± 0.036
ubr1∆
  protein stability index: 2.82 ± 0.029

## RQLTSLGSKKELGISLE [SNU114]
doa10∆
  protein stability index: 3 ± 0.072
pdr5∆
  protein stability index: 3.17 ± 0.079
san1∆
  protein stability index: 3.14 ± 0.097
ubr1∆
  protein stability index: 3.36 ± 0.062

## FEASCMEGQKLDDPVLN [YJR042W/NUP85]
doa10∆
  protein stability index: 1.83 ± 0.088
pdr5∆
  protein stability index: 1.76 ± 0.086
san1∆
  protein stability index: 1.45 ± 0.21
ubr1∆
  protein stability index: 1.53 ± 0.061

## NLPEEERKQIHEFKLIV [GRR1]
doa10∆
  protein stability index: 2.13 ± 0.29
pdr5∆
  protein stability index: 3.35 ± 0.24
ubr1∆
  protein stability index: 2.73 ± 0.13

## VADEEANIELTWAEGTF [RPC37]
doa10∆
  protein stability index: 2.06 ± 0.067
pdr5∆
  protein stability index: 2.98 ± 0.087
san1∆
  protein stability index: 1.81 ± 0.097
ubr1∆
  protein stability index: 2.52 ± 0.071

## NRRGMLALSGTSASNTS [SNF5]
doa10∆
  protein stability index: 3.02 ± 0.064
pdr5∆
  protein stability index: 3.1 ± 0.064
san1∆
  protein stability index: 2.86 ± 0.064
ubr1∆
  protein stability index: 2.92 ± 0.066

## QSVEEKVLEMKNLKDTA [YIL149C/MLP2]
doa10∆
  protein stability index: 2.81 ± 0.25
pdr5∆
  protein stability index: 2.58 ± 0.2
ubr1∆
  protein stability index: 2.78 ± 0.089

## RSLATAVATPKAEVTQL [COR1]
doa10∆
  protein stability index: 2.99 ± 0.1
pdr5∆
  protein stability index: 3.09 ± 0.13
san1∆
  protein stability index: 2.98 ± 0.092
ubr1∆
  protein stability index: 2.89 ± 0.042

## CLGIKDEEMLTSCTIPK [GAL11]
doa10∆
  protein stability index: 2.75 ± 0.075
pdr5∆
  protein stability index: 2.98 ± 0.068
san1∆
  protein stability index: 2.68 ± 0.049
ubr1∆
  protein stability index: 3.14 ± 0.059

## IARLYSCISISDIISML [RRI2]
doa10∆
  protein stability index: 1.37 ± 0.061
pdr5∆
  protein stability index: 1.35 ± 0.05
san1∆
  protein stability index: 1.24 ± 0.093
ubr1∆
  protein stability index: 1.17 ± 0.029

## KQLEKRDYQRINKNSKI [POP4]
doa10∆
  protein stability index: 2.06 ± 0.067
pdr5∆
  protein stability index: 2.4 ± 0.068
san1∆
  protein stability index: 2.02 ± 0.11
ubr1∆
  protein stability index: 2.69 ± 0.11

## SINKNNKEMHTDLGKDI [SSN2]
pdr5∆
  protein stability index: 2.07 ± 0.22
san1∆
  protein stability index: 3.21 ± 0.12
ubr1∆
  protein stability index: 3.48 ± 0.14

## IAKLVAVLNVSPVYDVD [NUT1]
doa10∆
  protein stability index: 1.84 ± 0.056
pdr5∆
  protein stability index: 2.05 ± 0.046
san1∆
  protein stability index: 1.7 ± 0.084
ubr1∆
  protein stability index: 1.75 ± 0.043

## ENDQQDNEEWMNDVINT [LIN1]
doa10∆
  protein stability index: 3.36 ± 0.076
pdr5∆
  protein stability index: 3.24 ± 0.073
san1∆
  protein stability index: 3.19 ± 0.058
ubr1∆
  protein stability index: 2.98 ± 0.071

## NEDDALIYGISDEERDD [AAR2]
doa10∆
  protein stability index: 3.29 ± 0.12
pdr5∆
  protein stability index: 3.53 ± 0.13
san1∆
  protein stability index: 3.62 ± 0.066
ubr1∆
  protein stability index: 3.2 ± 0.12

## NVTMIDDLIHFTLKQWN [COR1]
doa10∆
  protein stability index: 2.49 ± 0.14
pdr5∆
  protein stability index: 2.89 ± 0.16
san1∆
  protein stability index: 2.79 ± 0.081
ubr1∆
  protein stability index: 2.74 ± 0.099

## VEVDITLSPNVTDSSLL [GRR1]
doa10∆
  protein stability index: 2.83 ± 0.074
pdr5∆
  protein stability index: 2.43 ± 0.068
san1∆
  protein stability index: 2.99 ± 0.053
ubr1∆
  protein stability index: 2.82 ± 0.046

## FDTVSNKLFTEPIKLEP [YMR129W/POM152]
doa10∆
  protein stability index: 2.58 ± 0.046
pdr5∆
  protein stability index: 2.7 ± 0.065
san1∆
  protein stability index: 2.64 ± 0.057
ubr1∆
  protein stability index: 2.91 ± 0.036

## YEDSGSTYKHDRGIANI [SRB4]
doa10∆
  protein stability index: 3.29 ± 0.13
pdr5∆
  protein stability index: 3.29 ± 0.14
san1∆
  protein stability index: 3.25 ± 0.097
ubr1∆
  protein stability index: 3.36 ± 0.096

## LTLYLFQDYLTQQAVNL [IRR1]
doa10∆
  protein stability index: 2.15 ± 0.095
pdr5∆
  protein stability index: 1.91 ± 0.067
san1∆
  protein stability index: 2.06 ± 0.15
ubr1∆
  protein stability index: 2.17 ± 0.099

## EVYDFTHAVGNNCEDFV [FAS1]
doa10∆
  protein stability index: 3.15 ± 0.12
pdr5∆
  protein stability index: 3 ± 0.18
san1∆
  protein stability index: 2.99 ± 0.071
ubr1∆
  protein stability index: 3.05 ± 0.086

## IEPFECVEISHISKIIG [RPN6]
doa10∆
  protein stability index: 2.47 ± 0.14
san1∆
  protein stability index: 1.94 ± 0.3

## KFQGVLESEAQKKATMS [RPC34]
doa10∆
  protein stability index: 3.54 ± 0.18
pdr5∆
  protein stability index: 3.01 ± 0.18
ubr1∆
  protein stability index: 3.34 ± 0.11

## ALSIADDASSAELLGRV [RPC53]
doa10∆
  protein stability index: 3.02 ± 0.16
pdr5∆
  protein stability index: 2.92 ± 0.26
san1∆
  protein stability index: 3.21 ± 0.18
ubr1∆
  protein stability index: 3.12 ± 0.085

## VISIVGGHSLEEISFSL [PRP28]
doa10∆
  protein stability index: 2.82 ± 0.13
pdr5∆
  protein stability index: 2.73 ± 0.13
san1∆
  protein stability index: 3.19 ± 0.091
ubr1∆
  protein stability index: 3.18 ± 0.13

## TAVAFWSWDIAVDNCAI [HRT1]
doa10∆
  protein stability index: 1.33 ± 0.07
pdr5∆
  protein stability index: 1.49 ± 0.067
san1∆
  protein stability index: 1.52 ± 0.12
ubr1∆
  protein stability index: 1.55 ± 0.043

## NANIFSSVKCFGPIKVE [FAS1]
doa10∆
  protein stability index: 2.04 ± 0.068
pdr5∆
  protein stability index: 1.63 ± 0.046
san1∆
  protein stability index: 2.17 ± 0.067
ubr1∆
  protein stability index: 1.51 ± 0.058

## RKQIQLLKKIIFEKELM [SRB4]
doa10∆
  protein stability index: 1.93 ± 0.051
pdr5∆
  protein stability index: 2.14 ± 0.047
san1∆
  protein stability index: 1.86 ± 0.071
ubr1∆
  protein stability index: 2.03 ± 0.034

## YFLRRQYILQIVSFIVN [YJL039C/NUP192]
doa10∆
  protein stability index: 1.2 ± 0.048
pdr5∆
  protein stability index: 1.38 ± 0.068
san1∆
  protein stability index: 1.31 ± 0.14
ubr1∆
  protein stability index: 1.1 ± 0.055

## EENSQGNILDFNLNLPP [REC8]
doa10∆
  protein stability index: 3.06 ± 0.11
pdr5∆
  protein stability index: 3.5 ± 0.14
san1∆
  protein stability index: 3.18 ± 0.051
ubr1∆
  protein stability index: 3.01 ± 0.079

## EYNKPNSEKFVFLLTTR [ISW2]
doa10∆
  protein stability index: 3.09 ± 0.19
pdr5∆
  protein stability index: 2.58 ± 0.099
san1∆
  protein stability index: 1.59 ± 0.083
ubr1∆
  protein stability index: 2.43 ± 0.12

## FDGFLFGSRVMIAKEVK [FAS1]
doa10∆
  protein stability index: 2.58 ± 0.15
pdr5∆
  protein stability index: 1.56 ± 0.18
ubr1∆
  protein stability index: 2.55 ± 0.074

## ANQSATSTPPPPPAPHN [SNF5]
doa10∆
  protein stability index: 2.98 ± 0.041
pdr5∆
  protein stability index: 3.03 ± 0.034
san1∆
  protein stability index: 2.82 ± 0.034
ubr1∆
  protein stability index: 3.1 ± 0.032
